We go through one molecule from patent US20080096222A1 (BRIGHAM AND WOMEN S HOSPITAL, published 2008).

Assay [1] has as its target T1, GST alone (UniProt P08515 1-218 = GST).
T1 construct: Control protein
As to the kind of experiment: GST pulldown from lysates of myc-haspin-transfected cells. Here is the method: (§1) For immunoprecipitation, cells are suspended in 50 mM Tris/0.5 M NaCl/1% Triton X-100/1% DOC/0.1% SDS/2 mM EDTA, pH 7.4 (buffer L) with 1 μg/ml pepstatin/1 μg/ml leupeptin/1 μg/ml antipain/1 μg/ml chymostatin/1 mM phenylmethylsulphyl fluoride/1 mM NaF/0.1 μM okadaic acid and lysed by shearing 15 times through a 21 gauge needle. Insoluble material is removed by centrifugation for 15 min at 13,000 rpm and the lysates precleared with protein G-Sepharose and concentrations equalized based on Bradford assay (Bio-Rad). Lysates are incubated with antibodies for 1.5 h at 4° C. before addition of protein G-Sepharose for a further 1.5 h. Beads are washed 4 times with buffer L and thrice with Hepes-buffered saline, pH 7.4 (HBS). For GST pulldown assays, cells are lysed in 20 mM Tris/1% Triton X-100/1 mM EDTA/1 mM DTT, pH 7.4 (buffer T) containing 0.3 M NaCl and protease and phosphatase inhibitors as above, clarified, and precleared with glutathione-Sepharose. […]
(§2) To examine the interaction of haspin with H3, we utilized the H3-GST fusion proteins in “pulldown” assays from lysates of myc-haspin-transfected cells. In the conditions of the assay, myc-haspin bound to H3-GST, whereas the binding of myc-haspin to GST alone, H2B-GST and H4-GST was not detected.

The target of assay [2] is T2, H2B-GST (residues 1-35 of human H2B fused to GST) (human, UniProt P62807 2-36).
T2 construct: range 1-35; not shown: glutathione S-transferase (GST) encoded by vector pETGEX-CT
Described as above. Here is the method:
as §1, §2

T1 sequence (P08515 whole entry): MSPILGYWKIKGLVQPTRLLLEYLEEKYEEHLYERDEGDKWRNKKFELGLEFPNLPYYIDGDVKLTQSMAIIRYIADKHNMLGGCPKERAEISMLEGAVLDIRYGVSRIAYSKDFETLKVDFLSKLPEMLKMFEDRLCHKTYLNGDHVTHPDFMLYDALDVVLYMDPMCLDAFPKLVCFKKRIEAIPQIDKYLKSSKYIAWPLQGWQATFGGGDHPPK
T2 sequence (P62807 2-36): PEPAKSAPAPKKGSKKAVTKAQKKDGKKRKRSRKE

B1: myc-tagged human haspin (enzyme)
chain: AASLPGPGSRLFRTYGAADGRRQRRPGREAAQWFPPQDRRRFFNSSGSSDASIGDPSQSDDPDDPDDPDFPGSPVRRRRRCPGGRVPKDRPSLTVTPKRWKLRARPSLTVTPRRLGLRARPPQKCSTPCGPLRLPPFPSRDSGRLSPDLSVCGQPRDGDELGISASLFSSLASPCPGSPTPRDSVISIGTSACLVAASAVPSDLHLPEVSLDRASLPCSQEEATGGAKDTRMVHQTRASLRSVLFGLMNSGTPEDSEFRADGKNMRESCCKRKLVVGNGPEGPGLSSTGKRRATGQDSCQERGLQEAVRREHQEASVPKGRIVPRGTDRLERTRSSRKSKHQEATETSLLHSHRFKKGQKLGKDSFPTQDLTPLQNACFWTKTRASFSFHKKKIVTDVSEVCSIYTTATSLSGSLLSECSNRPVMNRTSGAPSSWHSSSMYLLSPLNTLSISNKKASDAEKVYGECSQKGPVPFSHCLPTEKLQRCEKIGEGVFGEVFQTIADHTPVAIKIIAIEGPDLVNGSHQKTFEEILPEIIISKELSLLSGEVCNRTEGFIGLNSVHCVQGSYPPLLLKAWDHYNSTKGSANDRPDFFKDDQLFIVLEFEFGGIDLEQMRTKLSSLATAKSILHQLTASLAVAEASLRFEHRDLHWGNVLLKKTSLKKLHYTLNGKSSTIPSCGLQVSIIDYTLSRLERDGIVVFCDVSMDEDLFTGDGDYQFDIYRLMKKENNNRWGEYHPYSNVLWLHYLTDKMLKQMTFKTKCNTPAMKQIKRKIQEFHRTMLNFSSATDLLCQHSLFK
notes: Expressed in transfected HEK293 or HeLa cells and used from cell lysates; also called myc-haspin; full-length haspin; not shown: myc tag encoded by the pcDNA3-derived plasmid pCANmyc1
Regarding B1, the binding result in assay [1] and in assay [2] was “no binding” in each case.
